Assay results taken from patent publication EP4596582A1 (Sichuan Kelun-Biotech Biopharmaceutical Co., Ltd., dated 2025).

Key:
[1] = target: T1, human B7-H3-4Ig on CHO-S cells (CHO-S-human B7-H3-4Ig) (human, UniProt Q5ZPR3 29-534); assay: cell-based or functional assay
T1 sequence (looked up): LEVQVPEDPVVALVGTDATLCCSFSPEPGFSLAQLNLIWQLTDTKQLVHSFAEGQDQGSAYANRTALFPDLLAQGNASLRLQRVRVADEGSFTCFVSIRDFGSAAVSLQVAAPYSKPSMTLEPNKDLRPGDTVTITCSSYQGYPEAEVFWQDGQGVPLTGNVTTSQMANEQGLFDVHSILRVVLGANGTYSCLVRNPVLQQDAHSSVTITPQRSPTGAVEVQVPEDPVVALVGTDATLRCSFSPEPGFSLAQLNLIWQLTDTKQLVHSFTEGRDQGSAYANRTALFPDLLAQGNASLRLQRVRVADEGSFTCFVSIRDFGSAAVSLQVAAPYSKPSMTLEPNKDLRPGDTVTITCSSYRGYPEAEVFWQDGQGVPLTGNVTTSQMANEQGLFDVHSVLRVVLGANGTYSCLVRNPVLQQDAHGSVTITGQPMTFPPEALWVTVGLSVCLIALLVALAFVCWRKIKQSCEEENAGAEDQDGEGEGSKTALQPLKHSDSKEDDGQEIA

[2] = target: T2, human B7-H3 on human tumor cells (MCF-7, HT29, NCI-N87, HCC1806, HCC827) (human, UniProt Q5ZPR3 29-534); assay: flow cytometry on HT29 cells
T2 construct: whole, on cells
T2 sequence (looked up): T1 sequence (looked up)

[3] = target: T3, human B7-1-his (human, UniProt P33681 35-242); assay: ELISA, antigen coated at 1 ug/ml
T3 construct: Bought protein; not shown: his tag
T3 sequence (looked up): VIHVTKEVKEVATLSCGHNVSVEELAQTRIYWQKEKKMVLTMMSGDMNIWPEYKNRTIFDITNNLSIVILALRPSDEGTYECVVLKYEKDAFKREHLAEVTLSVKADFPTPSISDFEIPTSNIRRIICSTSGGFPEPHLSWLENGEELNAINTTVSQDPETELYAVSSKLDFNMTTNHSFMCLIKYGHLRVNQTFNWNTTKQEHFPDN

[4] = target: T4, human B7-2-his (human, UniProt P42081 24-247, limits assumed); assay: ELISA, antigen coated at 1 ug/ml
T4 construct: Bought protein; not shown: his tag
T4 sequence (looked up): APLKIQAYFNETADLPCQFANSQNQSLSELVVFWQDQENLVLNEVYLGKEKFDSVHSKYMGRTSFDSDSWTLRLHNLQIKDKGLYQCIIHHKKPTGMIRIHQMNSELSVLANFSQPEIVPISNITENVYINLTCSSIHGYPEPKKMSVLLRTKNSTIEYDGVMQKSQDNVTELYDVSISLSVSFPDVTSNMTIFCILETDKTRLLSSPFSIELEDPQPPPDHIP

[5] = target: T5, human B7-H2-his (human, UniProt O75144 19-256, limits assumed); assay: ELISA, antigen coated at 1 ug/ml
T5 construct: Bought protein; not shown: his tag
T5 sequence (looked up): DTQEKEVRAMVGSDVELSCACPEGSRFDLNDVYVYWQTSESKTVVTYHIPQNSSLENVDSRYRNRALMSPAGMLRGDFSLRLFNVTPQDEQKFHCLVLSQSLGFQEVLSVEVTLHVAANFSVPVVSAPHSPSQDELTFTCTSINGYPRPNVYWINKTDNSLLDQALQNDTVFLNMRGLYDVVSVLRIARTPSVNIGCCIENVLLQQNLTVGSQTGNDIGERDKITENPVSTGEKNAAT

[6] = target: T6, rat B7-H3 on CHO-S cells (CHO-S-rat B7-H3) (rat, UniProt Q7TPB4 29-316); assay: flow cytometry on CHO-S-rat B7-H3 cells
T6 construct: whole, on cells; also called rat B7-H3-overexpressed cells
T6 sequence (looked up): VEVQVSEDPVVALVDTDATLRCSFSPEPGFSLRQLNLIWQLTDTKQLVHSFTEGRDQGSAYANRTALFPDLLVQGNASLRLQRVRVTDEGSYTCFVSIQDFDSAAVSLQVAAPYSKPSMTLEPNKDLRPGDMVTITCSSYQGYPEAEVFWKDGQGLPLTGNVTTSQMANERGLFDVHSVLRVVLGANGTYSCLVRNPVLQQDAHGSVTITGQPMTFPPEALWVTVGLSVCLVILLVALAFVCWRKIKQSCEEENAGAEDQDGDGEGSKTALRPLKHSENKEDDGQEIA

[7] = target: T7, human B7-H3-4Ig-His protein (human, UniProt Q5ZPR3 29-466); assay: ELISA, antigen coated at 1 ug/ml (specificity panel)
T7 construct: extracellular domain; Made in HEK293-EBNA cells
T7 sequence: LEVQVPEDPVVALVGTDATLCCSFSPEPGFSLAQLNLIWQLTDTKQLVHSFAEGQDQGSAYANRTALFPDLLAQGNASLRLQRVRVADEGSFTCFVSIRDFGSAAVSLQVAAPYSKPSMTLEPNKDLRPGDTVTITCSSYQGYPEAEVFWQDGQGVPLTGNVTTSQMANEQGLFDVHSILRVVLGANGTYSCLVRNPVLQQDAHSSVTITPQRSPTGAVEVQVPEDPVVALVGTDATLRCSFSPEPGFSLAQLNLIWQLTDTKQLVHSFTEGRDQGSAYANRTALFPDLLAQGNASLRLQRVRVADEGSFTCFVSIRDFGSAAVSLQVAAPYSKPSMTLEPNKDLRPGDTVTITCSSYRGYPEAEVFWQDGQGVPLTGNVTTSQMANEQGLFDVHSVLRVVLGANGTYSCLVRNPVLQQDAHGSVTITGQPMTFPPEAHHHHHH

[8] = target: T8, monkey B7-H3-4Ig-His protein (monkey); assay: BLI (ForteBio), antibody captured on Protein A sensor, 1:1 global fit
T8 chain: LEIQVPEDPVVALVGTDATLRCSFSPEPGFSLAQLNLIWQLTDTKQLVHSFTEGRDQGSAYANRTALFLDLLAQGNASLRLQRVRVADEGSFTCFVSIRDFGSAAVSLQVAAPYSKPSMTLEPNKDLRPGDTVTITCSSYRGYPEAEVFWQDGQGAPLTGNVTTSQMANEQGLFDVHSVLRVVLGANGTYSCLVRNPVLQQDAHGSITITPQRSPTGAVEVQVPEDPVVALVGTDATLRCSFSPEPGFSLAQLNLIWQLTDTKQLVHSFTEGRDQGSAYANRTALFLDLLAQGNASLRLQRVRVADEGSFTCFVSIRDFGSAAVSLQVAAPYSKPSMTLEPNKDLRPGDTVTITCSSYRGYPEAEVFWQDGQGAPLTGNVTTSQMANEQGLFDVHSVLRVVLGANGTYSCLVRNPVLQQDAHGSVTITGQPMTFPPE

B1: anti-human-B7-H3 human antibody 2#8890 (antibody, human IgG1, kappa, V domains shown)
VH: QVQLQESGPGLVQPSGTLSLTCAVSGGSDSSTNWWTWVRQSPGQGLEWIGEISPIGFTSYSPSLRSRVTISVDKSKTQFSLKLSSVTAADTAVYYCARDRLYFAFWGQGTLVTVSS
VL: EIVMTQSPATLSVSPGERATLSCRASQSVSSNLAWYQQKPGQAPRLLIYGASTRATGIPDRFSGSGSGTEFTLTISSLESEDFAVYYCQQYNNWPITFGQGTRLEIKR
- CDC: EC50 of killing of target cell CHO-S-B7-H3-4Ig with 10% guinea pig serum complement [1]: 2920 ng/mL
- EC50 [2]: 6.34 ng/mL
- binding result [3]: no binding (tested: 10 ug/ml highest concentration)
- binding result [4]: no binding (tested: 10 ug/ml highest concentration)
- binding result [5]: no binding (tested: 10 ug/ml highest concentration)
- binding result [6]: no binding (tested: 10 ug/ml highest concentration)
- EC50 [7]: 1.93 ng/mL
- Kd [8]: 1.24 nM
